Experimental data: publication PMC2330087, “Mechanistic Insights into a Novel Exporter-Importer System of Mycobacterium tuberculosis Unravel Its Role in Trafficking of Iron” (PLoS ONE, 2008)

B1: rIrtA (recombinant purified IrtA, Rv1348) (natural protein)
chain: MARGLQGVMLRSFGARDHTATVIETISIAPHFVRVRMVSPTLFQDAEAEPAAWLRFWFPDPNGSNTEFQRAYTISEADPAAGRFAVDVVLHDPAGPASSWARTVKPGATIAVMSLMGSSRFDVPEEQPAGYLLIGDSASIPGMNGIIETVPNDVPIEMYLEQHDDNDTLIPLAKHPRLRVRWVMRRDEKSLAEAIENRDWSDWYAWATPEAAALKCVRVRLRDEFGFPKSEIHAQAYWNAGRAMGTHRATEPAATEPEVGAAPQPESAVPAPARGSWRAQAASRLLAPLKLPLVLSGVLAALVTLAQLAPFVLLVELSRLLVSGAGAHRLFTVGFAAVGLLGTGALLAAALTLWLHVIDARFARALRLRLLSKLSRLPLGWFTSRGSGSIKKLVTDDTLALHYLVTHAVPDAVAAVVAPVGVLVYLFVVDWRVALVLFGPVLVYLTITSSLTIQSGPRIVQAQRWAEKMNGEAGSYLEGQPVIRVFGAASSSFRRRLDEYIGFLVAWQRPLAGKKTLMDLATRPATFLWLIAATGTLLVATHRMDPVNLLPFMFLGTTFGARLLGIAYGLGGLRTGLLAARHLQVTLDETELAVREHPREPLDGEAPATVVFDHVTFGYRPGVPVIQDVSLTLRPGTVTALVGPSGSGKSTLATLLARFHDVERGAIRVGGQDIRSLAADELYTRVGFVLQEAQLVHGTAAENIALAVPDAPAEQVQVAAREAQIHDRVLRLPDGYDTVLGANSGLSGGERQRLTIARAILGDTPVLILDEATAFADPESEYLVQQALNRLTRDRTVLVIAHRLHTITRADQIVVLDHGRIVERGTHEELLAAGGRYCRLWDTGQGSRVAVAAAQDGTR
notes: also called p23-IrtA
B2: rIrtB (recombinant purified IrtB, Rv1349) (natural protein)
chain: MIRTWIALVPNDHRARLIGFALLAFCSVVARAVGTVLLVPLMAALFGEAPQRAWLWLGWLSAATVAGWVLDAVTARIGIELGFAVLNHTQHDVADRLPVVRLDWFTAENTATARQAIAATGPELVGLVVNLVTPLTSAILLPAVIALALLPISWQLGVAALAGVPLLLGALWASAAFARRADTAADKANTALTERIIEFARTQQALRAARRVEPARSLVGNALASQHTATMRLLGMQIPGQLLFSIASQLALIVLAGTTAALTITGTLTVPEAIALIVVMVRYLEPFTAVSELAPALESTRATLGRIGSVLTAPVMVAGSGTWRDGAVVPRIEFDDVAFGYDGGSGPVLDGVSFCLQPGTTTAIVGPSGCGKSTILALIAGLHQPTRGRVLIDGTDVATLDARAQQAVCSVVFQHPYLFHGTIRDNVFAADPGASDDQFAQAVRLARVDELIARLPDGANTIVGEAGSALSGGERQRVSIARALLKAAPVLLVDEATSALDAENEAAVVDALAADPRSRTRVIVAHRLASIRHADRVLFVDDGRVVEDGSISELLTAGGRFSQFWRQQHEAAEWQILAE
notes: also called p28-IrtB

Assays:
[1] = biological target: IrtB-Rv2895c two-component system (rIrtB in LP-49 liposomes with rRv2895c) (Mycobacterium tuberculosis, UniProt P9WL31+P9WQJ7)
IrtB-Rv2895c two-component system (rIrtB in LP-49 liposomes with rRv2895c), sequence (P9WL31 whole entry, one chain of several): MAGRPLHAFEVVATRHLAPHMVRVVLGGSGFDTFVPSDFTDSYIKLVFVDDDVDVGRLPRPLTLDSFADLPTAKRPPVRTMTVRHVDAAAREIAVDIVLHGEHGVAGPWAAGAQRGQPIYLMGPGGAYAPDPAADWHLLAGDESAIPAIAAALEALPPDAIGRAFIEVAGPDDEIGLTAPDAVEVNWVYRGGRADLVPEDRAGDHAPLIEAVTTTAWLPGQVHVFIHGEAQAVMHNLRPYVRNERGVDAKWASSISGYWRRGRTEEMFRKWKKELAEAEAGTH

[2] = biological target: the molecule itself; experiment: SEC + other: circular dichroism

Molecule | inorganic phosphate release in proteoliposomes [1] | binding result [2]
Nc1ncnc2c1ncn2[C@@H]1O[C@H](COP(=O)(O)OP(=O)(O)OP(=O)(O)O)[C@@H](O)[C@H]1O [ATP] | The increase in ATPase activity of (a) LP-49 liposomes after incubation with Fe-cMyco bound rRv2895c | 
B1 |  | binds
B2 |  | binds
